The target in this assay is T1, Flag-tagged Cavβ3-subunit (rat, UniProt P54287 1-484).
T1 construct: whole, on cells; Flag-tagged in co-immunoprecipitation, pull-down and immunofluorescence; also called Flag-Cavβ3; N-Flag Cavβ3-subunits
Briefly: dissociation of β3 from GST-AID by peptide, Western blot of the supernatant. On the procedure: B, BARP displaces the Caᵥβ3-subunit from the AID. In vivo expressed Caᵥβ3-subunits were pulled-down using a GST-AID fusion protein and the complex then incubated with increasing amounts of AID or BARP Domain I peptide. The Caᵥβ3-subunit displaced from the GST-AID was monitored by Western blot.
Preparation of cell homogenates lysed into a buffer containing (50 mM Tris-HCl (pH 7.5), 100 mM NaCl, 1 mM MgCl₂, 0.5% Triton) supplemented with proteases inhibitors, co-immunoprecipitation and Western blot analysis using the generated antibodies together with monoclonal anti-FLAG(M2; Sigma), rabbit anti-GST (Santa Cruz Biotechnology), rabbit Caᵥ1.2 (Chemicon International), Caᵥ2.1(Alomone labs), Caᵥ2.2 (Calbiochem), Caᵥβ₃ (Alomone labs) antibodies were carried out essentially as described in. Brain, skeletal muscle and heart lysates were purchased from Zyagen Laboratories. In vitro synthesized BARP was produced by using the TNT quick coupled transcription/translation systems (Promega). For the dissociation experiments, an AID peptide ([…]) and a BARP domain I peptide ([…]) were synthesized (Mimotopes). […] After extensive wash to remove unassociated β₃-subunits, increasing concentration of peptide (30, 60, 300, 600 nM) were added. After an incubation of four hours, 10% of the supernatant containing the dissociated β₃-subunit were loaded on SDS-PAGE and subjected to Western blot analysis. […]
(In general: In western blotting, separated proteins are transferred to a membrane and probed.)

Consider one molecule from patent US20100272737A1 (AGENCY FOR SCIENCE TECHNOLOGY AND RESEARCH, published 2010).

T1 sequence (P54287 whole entry): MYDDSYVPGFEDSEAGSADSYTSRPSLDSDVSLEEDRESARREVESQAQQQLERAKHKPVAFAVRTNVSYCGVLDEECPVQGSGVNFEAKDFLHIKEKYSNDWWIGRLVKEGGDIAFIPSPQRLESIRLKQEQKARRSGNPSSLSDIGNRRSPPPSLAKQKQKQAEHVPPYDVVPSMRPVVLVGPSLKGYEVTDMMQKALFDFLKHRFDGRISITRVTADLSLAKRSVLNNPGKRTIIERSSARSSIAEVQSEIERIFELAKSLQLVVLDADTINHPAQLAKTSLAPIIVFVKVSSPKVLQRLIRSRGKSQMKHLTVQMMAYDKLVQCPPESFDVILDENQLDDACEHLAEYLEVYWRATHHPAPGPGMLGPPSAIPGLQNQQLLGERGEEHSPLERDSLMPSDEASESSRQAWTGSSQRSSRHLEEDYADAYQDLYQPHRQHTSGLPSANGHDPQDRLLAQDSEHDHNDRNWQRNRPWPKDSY

B1: BARP domain I peptide (peptide)
peptide: SYRDLWSLRASLELHAATASD
notes: Synthesized by Mimotopes; also called AID-like BARP peptide
On to B1, for which the binding result was “binds”.
